These results are taken from patent publication US20240132599A1 (GAMMADELTA THERAPEUTICS, published 2024).

Substitutions are numbered along the chain they refer to. Read-outs that look alike come from different tables or passages of the source.

Assay [1] addresses T1, L1 (DV1-GV4), recombinant soluble human Vδ1/Vγ4 γδ TCR heterodimer (human).
T1 construct: Biotinylated in the DELFIA ranking assay; also called human TRDV1; human Vδ1 antigen
Put plainly: SPR (Reichert 4SPR), antibody on Protein A chip, human Vδ1 antigen as analyte, 1:1 fit, mean of two replicates (Avg KD).
Description: (§1) The binding affinity of the antibodies to target (i.e. the Vδ1 chain of a γ TCR) is established by SPR analysis using a Reichert 4SPR instrument (Reichert Technologies).
(§2) The binding interaction of Vδ1 and the affinity-matured mAbs were modelled according to Langmuir 1:1 binding.

Assay [2] deals with T2, Vδ1 TCR on human Vδ1-positive γδ T cells (human, UniProt A0A1B0GX56 22-115).
T2 construct: also called Vδ1 γδ T-cells; cell surface Vδ1 TCR
T2 sequence (A0A1B0GX56 22-115 limits assumed, stated change not applied): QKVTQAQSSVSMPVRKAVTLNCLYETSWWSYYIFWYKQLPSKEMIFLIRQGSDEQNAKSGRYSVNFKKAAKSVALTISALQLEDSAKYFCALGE
Description: flow cytometry binding to γδ T cells, Donor 2 (TS164); column head printed IC50 (nM), the text calls it EC50 of binding; same value in the table of FIG. 11C. A general note: In flow cytometry, cells or beads pass a laser one at a time.
Description: (§3) (FIGS. 11A-11B) The level of binding by the V61 mAbs to two γδ T cell donors, ATS006 (FIG. 11A) and TS164 (FIG. 11B). γδ T cells were stained with varying concentrations of Vδ1 mAbs, followed by a fluorescent anti-human IgG detection antibody (xxx). All incubation steps were performed at 4° C. and mAb binding was determined using flow cytometry to measure the median level of fluorescence. Logarithmic four parameter dose-response curves were fitted using GraphPad Prism 9.
(§4) A range of target cells were assayed to determine the specificity and affinity of Vδ1 mAb binding. This included expanded skin-derived Vδ1 γδ T-cells, HEK293T cells, Raji cells, and multiple leukocyte subsets within human primary blood mononuclear cells. Adherent or semi-adherent cells (skin-derived Vδ1 γδ T-cells, HEK293T) were detached from tissue culture flask and resuspended in PBS. Similarly, non-adherent cell types (Raji, PBMC), were harvested and resuspended in PBS. Cells were seeded at a final density of 100,000 cells per well in v-bottom 96-well plates. Cells underwent centrifugation and the cell pellets were resuspended in FcR blocking reagent according to the manufacturer's instructions, and incubated for 20 minutes at 4C prior to a further wash. […] To determine the quantity of mAb bound to the cell surface, the cells were then stained with a murine anti-human IgG secondary antibody, conjugated to APC (product code . . . , dilution: 1:100). For Vδ1 γδ T-cells, HEK293T and Raji, the cells were also stained solely with a viability dye.

For assay [3], the target named is T2, Vδ1 TCR on human Vδ1-positive γδ T cells. Description: flow cytometry binding to γδ T cells, Donor 1 (ATS006); column head printed IC50 (nM), the text calls it EC50 of binding; same value in the table of FIG. 11C.
Description: as §3, §4
The target of assay [4] is T1, L1 (DV1-GV4), recombinant soluble human …. Put plainly: SPR.
Assay [5] has the same target. Description: SPR. The source holds these as a separate data set.
In assay [6] the target is T3, human EGFR, recombinant protein (human, UniProt P00533 25-645).
T3 construct: Bought protein; also called human EGFR antigen
Put plainly: SPR.

For assay [7], the target named is T2, Vδ1 TCR on human Vδ1-positive γδ T cells. Description: flow cytometry on skin-derived Vδ1+ cells, 20 min at 4 C, anti-human Fc secondary.
Description: Cells were washed and stained with an anti-human Fc secondary antibody (Jackson Immunoresearch) and a viability dye for dead cells (eFlour 780, Invitrogen) for 20 minutes at 4° C. The cells were washed in FACS buffer and resuspended in Cell Fix (BD sciences) before analysis on a MACSQuant Analyser 10 flow cytometer (Miltenyi).
In assay [8] the target is T1, L1 (DV1-GV4), recombinant soluble human …. Description: SPR (Reichert 4SPR): antibody on a Protein A chip, human Vδ1 antigen flowed; column 'Affinity to Vδ1 (nM)'.
Description: Human Vδ1 antigen was flown over the cell at a 1:3 dilution series with top concentrations of 50 nM with the following parameters: 180s association, 900s dissociation, flow rate 25 μL/min, running buffer PBS+0.05% Tween-20. The chip surface was regenerated using 20 mM phosphoric acid following each injection. All experiments were performed at room temperature. Steady state fitting was determined according to Langmuir 1:1 binding using TraceDrawer software (Reichert Technologies.
Assay [9] shares this target. Description: SPR. This is another data set of the same source. (SPR reads the build-up and loss of mass on a sensor chip optically.)
Assay [10] has as its target T3, human EGFR, recombinant protein. Description: SPR (Reichert 4SPR): antibody captured on a Protein A chip, human EGFR flowed at 100 nM.
Assay [11] has as its target T1, L1 (DV1-GV4), recombinant soluble human …. Description: SPR (Reichert 4SPR), antibody on Protein A chip, human Vδ1 antigen as analyte, 1:1 fit, mean of two replicates (Avg KD). The source holds these as a separate data set.
Description: as §1, §2
Assay [12] concerns the target T4, cyno antigen DV1/GV77, recombinant cynomolgus Vδ1 γδ TCR heterodimer (cynomolgus monkey).
T4 construct: also called cyno TRDV1; Cyno DV1-77; not shown: Delta-chain CDR3/J and constant part, the GV77 gamma chain, and any tags
Description: DELFIA ELISA, cyno antigen, heat map; all column labels read ADT1-4-110, clone assigned by the HC/LC CDR3 pair as in FIG. 4A and FIGS. 22-23.

Assay [13] addresses Vδ1 TCR on cynomolgus γδ T cells (cynomolgus monkey). Put plainly: cell-based or functional assay.
In assay [14] the target is T5, EGFR on A431 cells (human, UniProt P00533 25-1210).
T5 construct: whole, on cells; also called EGFR-positive A431; EGFR+A431 target cells
Put plainly: flow cytometry on A431 cells, 4 C, anti-human IgG-APC secondary, median fluorescence.
Description: (§5) Target cells were stained with varying concentrations of antibody, followed by a fluorescent anti-human IgG detection antibody. All incubation steps were performed at 4° C. and mAb binding was determined using flow cytometry to measure the median level of fluorescence. Logarithmic four parameter dose-response curves were fitted using GraphPad Prism 9.
(§6) Target cells were detached from tissue culture flask, resuspended in PBS and seeded at a final density of 100,000 cells per well in v-bottom 96-well plates. Cells underwent centrifugation and the cell pellets were resuspended in FcR blocking reagent according to the manufacturer's instructions, and incubated for 20 minutes at 4C prior to a further wash. Antibodies were diluted to 500 nM in PBS and serially diluted 1:10 in PBS to 50 μM, and added to the cells, followed by a 20-minute incubation at 4C. To determine the quantity of mAb bound to the cell surface, the cells were then stained with a murine anti-human IgG secondary antibody, conjugated to APC (dilution: 1:100) in addition to a viability dye. Following 20-minute incubation at 4C, the cells were washed twice, and fluorescence measured using the MACSQuant.

Assay [15] deals with T3, human EGFR, recombinant protein. Description: SPR (Reichert 4SPR): antibody captured on a Protein A chip, human EGFR flowed at 100 nM. The source holds these as a separate data set.
The target in another assay is T6, EGFR on HT-29 cells (human, UniProt P00533).
T6 construct: full length, cell surface; also called EGFR+ colon cancer cell line HT-29; HT-29 tumour cell
Put plainly: flow cytometry on HT-29 cells, 20 min at 4 C, anti-human IgG secondary.

The target in assay [16] is T2, Vδ1 TCR on human Vδ1-positive γδ T cells. Put plainly: flow cytometry on primary Vδ1 γδ T cells, 4 C, anti-human IgG-APC secondary, median fluorescence.
Description: as §5, §6
Assay [17] deals with T5, EGFR on A431 cells. Put plainly: EGF blockade by flow cytometry: A431 cells pre-incubated with antibody 30 min at 4 C, then EGF-AF647; EGF binding MFI.
Description: Cells were then incubated for 1 hour at 4 degrees C., washed and stained with Live/dead dye (eFluor 520, Fisher) and incubated for a further 20 min at 4 degrees. The cells were washed in FACS buffer and resuspended in Cell Fix (BD sciences) before incubating overnight at 4° C. in the dark.

The Kd is the concentration at which binding is half-saturated. In general, EC50 refers to the midpoint of the concentration-response curve. Broadly, the EC95 is the concentration at which the effect reaches the 95% level. By EC50 (read off the curve) is commonly meant the midpoint of the concentration-response curve.

T1 sequence (main, as listed by the source): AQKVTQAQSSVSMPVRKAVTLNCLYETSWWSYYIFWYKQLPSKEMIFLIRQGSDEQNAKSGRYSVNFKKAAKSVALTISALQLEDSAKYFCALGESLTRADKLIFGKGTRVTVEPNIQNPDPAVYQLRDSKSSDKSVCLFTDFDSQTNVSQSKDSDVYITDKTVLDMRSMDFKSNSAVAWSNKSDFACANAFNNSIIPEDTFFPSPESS
Chain of Vδ1 TCR on cynomolgus γδ T cells (cynomolgus monkey) (chain, as listed by the source): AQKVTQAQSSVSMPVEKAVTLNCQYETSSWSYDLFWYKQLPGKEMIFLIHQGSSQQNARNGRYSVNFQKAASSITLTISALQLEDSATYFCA
T4 sequence (delta, as listed by the source limits assumed): as the sequence (chain, as listed by the source) above
Description for EGFR on HT-29 cells: After washing, cells were incubated for a further 20 minutes with anti-human IgG secondary antibodies (Jackson Immunoresearch) and live/dead stain (eFluor 780, Invitrogen) before washing and fixing using CellFix. The amount of antibody bound to each cell type was determined using flow cytometry (MACSQuant Analyser 10, Miltenyi Biotech).

B1: ADT1-7 (parental) (antibody, IgG1, V domains shown)
VH: QVQLVESGGGLVKPGGSLRLSCAASGFTFSDYYMSWIRQAPGKGLEWVSYISSSGSTIYYADSVKGRFTISRDNAKNSLYLQMNSLRAEDTAVYYCARVDYADAFDIWGQGTLVTVSS
VL: DIQMTQSPSSLSASVGDRVTIACRAGQSIGTYLNWYQQKPGKAPKLLIYVASSLQSGVPSRFSGSGSGTEFTLTISSLQPEDFATYYCQQSYSTLLTFGRGTKVEIK
notes: IgG1; also called E07; 1245_P01_E07
As to B1, the Kd in assay [1] was determined as 38.1 nM. For the same molecule, the 50% effective concentration (EC50) was 226 nM in assay [2] and > 100 nM in [3].

B2: ADT1-7-20 (antibody, IgG1, V domains shown)
VH: B1 VH with Q1E, A102Q, D103E
VL: B1 VL with T94G, L96D
notes: IgG1
As to B2, in assay [1], the Kd turned out to be 4.99 nM. Moreover, the concentration for a half-maximal effect (EC50) was determined as 2.68 nM in assay [2] and 37.2 nM in assay [3].

B3: ADT1-7-3 (antibody, IgG1, V domains shown)
VH: B1 VH with Q1E, D100S, D103E
VL: B1 VL with T94G, L96D
notes: IgG1
B3: in assay [1], the equilibrium dissociation constant (Kd) came to 3.78 nM. Also, the EC50 in assay [2] is 0.952 nM; in assay [3], 5.15 nM.

B4: ADT1-7-61 (antibody, IgG1, V domains shown)
VH: B1 VH with Q1E, V99D, A102D
VL: B1 VL with Y92A, T94E
notes: IgG1
For B4, the Kd in [1] amounted to 1.04 nM. Also, the figures for the concentration giving a half-maximal response (EC50) in assay [2] and in [3] were 196 nM and 93 nM, respectively.

B5: ADT1-4-1 (antibody, IgG1, V domains shown)
VH: EVQLQQSGPGLVKPSQTLSLTCAISGDSVSSKSAAWNWIRQSPSRGLEWLGRTYYRSKWSTDYAASVKSRITINPDTSKNQLSLQLNSVTPEDTAVYYCARTWVGYADVWGQGTLVTVSS
VL: DIQMTQSPPALSASVGDRVTITCRASQDINDWLAWYQHKPGKAPKLLIYDASSLESGVPLRFSGSGSGTEFTLTISSLQPDDFATYYCQQRYSTPIVTFGQGTRLEIK
notes: IgG1
For the molecule B5, the Kd in [4] and in [5] was 0.08 nM each time.

B6: ADT1-4-6/ADT3-2 (bispecific antibody, V domains shown)
VH: B5 VH with V104A, A107P
VL: B5 VL with R91K, S93K, I96Q
notes: mAb2, human IgG1; light constant region not tied; also called ADT1-4-6 × LEE
Take B6: the Kd in [6] came out at 0.655 nM. In assay [7], the EC50 worked out at 0.279 nM and the EC95 was found to be 2.77 nM. In assay [8], the Kd was found to be 1.26 nM.

B7: ADT1-4 (parental) (antibody, IgG1, V domains shown)
VH: B5 VH with E1Q, V104S, A107V
VL: B5 VL with L60S, R91S, I96Q
notes: IgG1; also called G04; 1245_P02_G04
Take B7: the Kd came to 115 nM in assay [9] and 149 nM in assay [11]. Moreover, the binding result in assay [10] is “no binding (tested: 100 nM)”. Also, the EC50 in assay [2] turned out to be 576 nM; in assay [3], 108 nM.

B8: ADT1-4-138/ADT3-2 (bispecific antibody, V domains shown)
VH: B5 VH with V104A, G105D, A107V
VL: B5 VL with L60S, P95D, I96Q
notes: mAb2, human IgG1; light constant region not tied; also called ADT1-4-138 × LEE; ADT1-4-138xADT3-2
For the molecule B8, in assay [6], the Kd is 2.78 nM. In [7], this molecule gave an EC50 of 0.209 nM and a concentration for an effect of 95% (EC95) of 2.25 nM. Moreover, in [8], the dissociation constant (Kd) came out at 18.3 nM.

B9: ADT1-4-139 (antibody, IgG1, V domains shown)
VH: B5 VH with A107V, V109Y
VL: B5 VL with R91G, I96Q, V97L
notes: IgG1
B9: the “Heat Map (Cyno) value (ELISA signal)” value in [12] stood at 57600.

B10: ADT1-4-2 (antibody, IgG1, V domains shown)
VH: B5 VH with A107V, V109R
VL: B5 VL with R91K, T94A, I96Q
notes: IgG1
Turning to B10, in [9], the Kd is 0.522 nM. Further, in assay [13], the “EC50 (read off the curve), TCR downregulation, donor AD8170” value lay in the range of 4 to 5 nM and the “EC50 (read off the curve), TCR downregulation, donor AM945BA” value was ~2 nM. Moreover, the binding result in the assay with EGFR on A431 cells [14] was “no binding (tested: 500 nM)”. Moreover, the binding result in assay [15] is recorded as “no binding (tested: 100 nM)”.

B11: ADT1-4-2/ADT3-2 (bispecific antibody)
heavy: EVQLQQSGPGLVKPSQTLSLTCAISGDSVSSKSAAWNWIRQSPSRGLEWLGRTYYRSKWSTDYAASVKSRITINPDTSKNQLSLQLNSVTPEDTAVYYCARTWVGYVDRWGQGTLVTVSSASTKGPSVFPLAPSSKSTSGGTAALGCLVKDYFPEPVTVSWNSGALTSGVHTFPAVLQSSGLYSLSSVVTVPSSSLGTQTYICNVNHKPSNTKVDKKVEPKSCDKTHTCPPCPAPELAGAPSVFLFPPKPKDTLMISRTPEVTCVVVDVSHEDPEVKFNWYVDGVEVHNAKTKPREEQYNSTYRVVSVLTVLHQDWLNGKEYKCKVSNKALPAPIEKTISKAKGQPREPQVYTLPPSRDELEEGPVSLTCLVKGFYPSDIAVEWESTYGPENNYKTTPPVLDSDGSFFLYSKLTVSYWRWYKGNVFSCSVMHEALHNHYTQKSLSLSPG
light: DIQMTQSPPALSASVGDRVTITCRASQDINDWLAWYQHKPGKAPKLLIYDASSLESGVPLRFSGSGSGTEFTLTISSLQPDDFATYYCQQKYSAPQVTFGQGTRLEIKRTVAAPSVFIFPPSDEQLKSGTASVVCLLNNFYPREAKVQWKVDNALQSGNSQESVTEQDSKDSTYSLSSTLTLSKADYEKHKVYACEVTHQGLSSPVTKSFNRGEC
notes: mAb2; also called ADT1-4-2 × LEE; ADT1-4-2xLEE
On to B11, for which the Kd in assay [6] amounted to 1.49 nM; in assay [8] it was 0.24 nM. In addition, the EC50 is 0.537 nM with EGFR on HT-29 cells, 0.276 nM in [7] and 2.92 nM with EGFR on A431 cells [17]. The same molecule displayed an EC95 in assay [7] of 2.7 nM. Further, the “EC50 (read off the curve)” value in [16] is ~0.8 nM.

B12: ADT1-4-2/ADT3-3 (bispecific antibody, human IgG1, kappa)
heavy: EVQLQQSGPGLVKPSQTLSLTCAISGDSVSSKSAAWNWIRQSPSRGLEWLGRTYYRSKWSTDYAASVKSRITINPDTSKNQLSLQLNSVTPEDTAVYYCARTWVGYVDRWGQGTLVTVSSASTKGPSVFPLAPSSKSTSGGTAALGCLVKDYFPEPVTVSWNSGALTSGVHTFPAVLQSSGLYSLSSVVTVPSSSLGTQTYICNVNHKPSNTKVDKKVEPKSCDKTHTCPPCPAPELAGAPSVFLFPPKPKDTLMISRTPEVTCVVVDVSHEDPEVKFNWYVDGVEVHNAKTKPREEQYNSTYRVVSVLTVLHQDWLNGKEYKCKVSNKALPAPIEKTISKAKGQPREPQVYTLPPSRDELDEGGPVSLTCLVKGFYPSDIAVEWESTYGPENNYKTTPPVLDSDGSFFLYSKLTVSYWRWVKGNVFSCSVMHEALHNHYTQKSLSLSPG
light: B11 light
notes: also called ADT1-4-2xFS1-65
With B12, the Kd in [9] turned out to be 0.464 nM; in [6], 1.35 nM.

B13: ADT1-4-2/ADT3-7 (bispecific antibody)
heavy: B11 heavy with Y421Q, K422Q
light: B11 light
notes: mAb2; also called ADT1-4-2xLEE3
On to B13, for which the equilibrium dissociation constant (Kd) in [9] was 0.462 nM; in [6], 8.63 nM. The molecule further registered an EC50 with EGFR on A431 cells [17] of 8.66 nM.
